One molecule from US20250197855A1 (ALNYLAM PHARMACEUTICALS, published 2025) can be followed below.

The target in experiment [1] is T1, C1q (mouse, in APPPS1-21 and WT mouse brain cortex sections) (mouse, UniProt P98086 23-245; P14106 26-253; Q02105 30-246).
T1 construct: Endogenous tissue protein detected with mouse anti-C1q (HM1096BT, Hycult)
The experiment in a line: proximity ligation assay (Duolink PLA) on brain cortex sections of 16 weeks old APPPS1-21 mice. The procedure:
Protein-protein binding ex vivo was performed by Duolink® PLA kit (DUO92101 SIGMA).
PLA signal was detected by Duolink® PLA kit according to manufacturer's protocol. Leica confocal microscope (SP8, Leica, Germany) equipped with a 100× oil objective (NA 1.4) were used for image. 6 fields per each sample were recorded, 3D reconstructions and the number of PLA signals per volume were performed using LAS-X software package (Leica, v1.2, Germany).
APPPS1-21 mice were treated with the liver-specific C5 siRNA AD-61679.

Experiment [2] concerns the target T2, Aβ in APPPS1-21 mouse brain (from the human APP transgene bearing the Swedish mutation) (human (transgene in mouse), UniProt P05067 672-713).
T2 construct: also called methoxy-X04+ Aβ plaque
The experiment in a line: proximity ligation assay (PLA) on APPPS1-21 mouse brain sections.

T1 sequence (P98086 23-245 limits assumed, chain 1 of 3): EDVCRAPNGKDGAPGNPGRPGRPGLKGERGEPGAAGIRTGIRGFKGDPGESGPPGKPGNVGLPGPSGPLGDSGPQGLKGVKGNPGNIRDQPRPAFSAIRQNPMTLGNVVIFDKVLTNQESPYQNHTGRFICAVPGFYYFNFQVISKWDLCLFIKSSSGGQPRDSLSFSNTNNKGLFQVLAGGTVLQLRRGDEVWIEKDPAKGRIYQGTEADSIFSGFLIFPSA
T1 sequence (P14106 26-253 limits assumed, chain 2 of 3): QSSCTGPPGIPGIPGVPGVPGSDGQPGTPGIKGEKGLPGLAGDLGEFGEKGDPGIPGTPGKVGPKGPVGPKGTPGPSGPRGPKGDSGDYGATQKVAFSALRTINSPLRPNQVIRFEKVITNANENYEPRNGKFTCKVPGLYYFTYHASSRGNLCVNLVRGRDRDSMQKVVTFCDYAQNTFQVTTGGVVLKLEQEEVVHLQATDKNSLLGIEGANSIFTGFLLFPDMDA
T1 sequence (Q02105 30-246 limits assumed, chain 3 of 3): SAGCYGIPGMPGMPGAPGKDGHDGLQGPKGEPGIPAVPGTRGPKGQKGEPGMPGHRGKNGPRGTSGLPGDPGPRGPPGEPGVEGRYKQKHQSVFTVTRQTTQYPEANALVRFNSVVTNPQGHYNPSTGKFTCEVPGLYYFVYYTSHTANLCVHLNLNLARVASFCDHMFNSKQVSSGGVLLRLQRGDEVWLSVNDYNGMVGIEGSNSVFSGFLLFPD
T2 sequence (P05067 672-713 limits assumed, change not shown): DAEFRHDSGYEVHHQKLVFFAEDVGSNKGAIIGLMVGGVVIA

B1: apolipoprotein E (mouse, in APPPS1-21 and WT mouse brain cortex sections) (other, UniProt P08226 19-311, looked up)
chain: EGEPEVTDQLEWQSNQPWEQALNRFWDYLRWVQTLSDQVQEELQSSQVTQELTALMEDTMTEVKAYKKELEEQLGPVAEETRARLGKEVQAAQARLGADMEDLRNRLGQYRNEVHTMLGQSTEEIRARLSTHLRKMRKRLMRDAEDLQKRLAVYKAGAREGAERGVSAIRERLGPLVEQGRQRTANLGAGAAQPLRDRAQAFGDRIRGRLEEVGNQARDRLEEVREHMEEVRSKMEEQTQQIRLQAEIFQARLKGWFEPIVEDMHRQWANLMEKIQASVATNPIITPVAQENQ
notes: Detected with rabbit anti-mouse ApoE (ab183597); also called ApoE
Take B1: the binding result in experiment [1] and in experiment [2] was “binds” each time.
